# Data from US8562982B2, “Use of platelet activating factor acetylhydrolase as a biomarker for anaphylaxis” (Allertech Laboratory Inc., priority 2007, dated 2013).
# B1: PAF-AH: the enzyme that degrades PAF; endogenous serum enzyme measured as biomarker (protein, UniProt Q13093 22-441, looked up)
# Platelet-activating factor …: FDWQYINPVAHMKSSAWVNKIQVLMAAASFGQTKIPRGNGPYSVGCTDLMFDHTNKGTFLRLYYPSQDNDRLDTLWIPNKEYFWGLSKFLGTHWLMGNILRLLFGSMTTPANWNSPLRPGEKYPLVVFSHGLGAFRTLYSAIGIDLASHGFIVAAVEHRDRSASATYYFKDQSAAEIGDKSWLYLRTLKQEEETHIRNEQVRQRAKECSQALSLILDIDHGKPVKNALDLKFDMEQLKDSIDREKIAVIGHSFGGATVIQTLSEDQRFRCGIALDAWMFPLGDEVYSRIPQPLFFINSEYFQYPANIIKMKKCYSPDKERKMITIRGSVHQNFADFTFATGKIIGHMLKLKGDIDSNVAIDLSNKASLAFLQKHLGLHKDFDQWDCLIEGDDENLIPGTNINTTNQHIMLQNSSGIEKYN
# Assay: Stability of PAF-AH in serum (storage temperatures, freeze-thaw cycles)
# Assay type: physicochemical, human
# Method: Sera may have been stored under differing conditions, subjecting PAF-AH to thermal stresses. In order to evaluate the effect of handling and storage conditions on PAF-AH activity, serum samples were subjected to a range of temperatures and freeze-thaw cycles and assayed for residual PAF-AH activity as detailed below.
# The final concentration of the substrate was 160 μM. […] The reaction was stopped in an ice bath.
# Serum samples from individuals with fatal peanut anaphylaxis and from various control groups may have been stored under differing conditions, subjecting PAF-AH to thermal stresses. In order to evaluate the effect of handling and storage conditions on PAF-AH activity, sera were stored at different temperatures. The stability of PAF-AH stored at 4° C. and 23° C. and subjected to repeated cycles of freeze-thawing was assessed. PAF-AH levels were measured at specified times following storage at 23° C. (2, 4, 8, 24 and 48 hours) and at 4° C. (5 and 10 days) and following 5 sequential cycles of freezing and thawing. To assess the stability of PAF-AH to long term storage, serum samples stored at −70° C. since 1998 were re-assayed for PAF-AH and compared to results of assay results prior to storage.
molecule,measurement,setting,value
B1,residual PAF-AH activity,"6 fresh sera, 5 freeze-thaw cycles, relative to fresh sera",90-105%
same,mean PAF-AH activity,"fresh sera in 1998 (n=25), before storage",27.04 ± 9.92 nmol/mL/min
same,mean PAF-AH activity,same sera after eight years at −70° C. (p=0.1047),22.98 ± 7.23 nmol/mL/min
same,retained initial PAF-AH activity,sera stored at 4° C. for 10 days,96-102%
same,retained PAF-AH activity of fresh sera,sera stored at 23° C. for up to 48 hours,84-92%
